# Laboratory results from PMC5893306 (Molecular pharmaceutics, 2018).
# *1 amine or outer side, *2 acyl side, *3 side chain or, on linkers, in order; H or OH if unused. Bridges are numbered along the chain shown (N, C = ends). Roman numbers before positions name the chains, in order. [ ]: non-standard residue; d: D form. X1 = CC(C)CCC[C@@H](C)[C@H]1CC[C@H]2[C@@H]3CC=C4C[C@@H](OC(=O)NCCOCCOCCOCCOCCC(=O)NCCOCCOCCOCCOCCOCCOCCOCCOCCOCCOCCOCCOCCOCCOCCOCCOCCOCCOCCOCCOCCOCCOCCOCCOCCOCCOCCOCCOCCC(=O)NC(CCC(=O)[*:1])(CCC(=O)[*:2])CCC(=O)[*:3])CC[C@]4(C)[C@H]3CC[C@]12C; PEG4 = NCCOCCOCCOCCOCCC(=O)O
# What was measured:
# [1] = Rat pharmacokinetics, IV and SC; assay type: in vivo, Sprague Dawley rats; conditions: for Vd / Tmax / bioavailability / half-life: Sprague-Dawley, rat, plasma
# [2] = Solubility in standard aqueous buffers; assay type: physicochemical; conditions: standard aqueous buffers (e.g., PBS, HEPES) at physiological pH
# [3] = Rat pharmacokinetics, IV and SC
# [4] = Non-human primate pharmacokinetics, IV and SC; assay type: in vivo, cynomolgus monkeys; conditions: male, cynomolgus monkey, plasma; for half-life: pH 7.4
# [5] = rats, IV, compared to PIE12-trimer
# [6] = male, rat, in vivo, iv, 1 mg/kg, pH 7.4
# [7] = male, rat, in vivo, sc, 1 mg/kg
# [8] = male, rat, in vivo, iv, 1 mg/kg
compound,measurement,setting,value
CC(=O)N[C@H](Cc1c[nH]cn1)C(=O)N1CCC[C@@H]1C(=O)N[C@@H]1CSSC[C@H](C(=O)N[C@H](CCC(=O)O)C(=O)N[C@H](CC(C)C)C(=O)NCC(=O)N[C@H](CCCCNC(=O)CCOCCOCCOCCOCCNC(=O)CCOCC(COCCC(=O)NCCOCCOCCOCCOCCC(=O)NCCCC[C@@H](NC(=O)CNC(=O)[C@@H](CC(C)C)NC(=O)[C@@H](CCC(=O)O)NC(=O)[C@H]2CSSC[C@@H](NC(=O)[C@H]3CCCN3C(=O)[C@@H](Cc3c[nH]cn3)NC(C)=O)C(=O)N[C@H](CC(=O)O)C(=O)N[C@H](Cc3ccc(O)cc3)C(=O)N3CCC[C@@H]3C(=O)N[C@H](CCC(=O)O)C(=O)N[C@H](Cc3c[nH]c4ccccc34)C(=O)N[C@H](CCC(N)=O)C(=O)N[C@H](Cc3c[nH]c4ccccc34)C(=O)N[C@H](CC(C)C)C(=O)N2)C(N)=O)(COCCC(=O)NCCOCCOCCOCCOCCC(=O)NCCCC[C@@H](NC(=O)CNC(=O)[C@@H](CC(C)C)NC(=O)[C@@H](CCC(=O)O)NC(=O)[C@H]2CSSC[C@@H](NC(=O)[C@H]3CCCN3C(=O)[C@@H](Cc3c[nH]cn3)NC(C)=O)C(=O)N[C@H](CC(=O)O)C(=O)N[C@H](Cc3ccc(O)cc3)C(=O)N3CCC[C@@H]3C(=O)N[C@H](CCC(=O)O)C(=O)N[C@H](Cc3c[nH]c4ccccc34)C(=O)N[C@H](CCC(N)=O)C(=O)N[C@H](Cc3c[nH]c4ccccc34)C(=O)N[C@H](CC(C)C)C(=O)N2)C(N)=O)NC(=O)CCOCCOCCOCCOCCOCCOCCOCCOCCOCCOCCOCCOCCOCCOCCOCCOCCOCCOCCOCCOCCOCCOCCOCCOCCNC(=O)CCN2C(=O)CC(S[C@H]3CC[C@@]4(C)C(=CC[C@H]5[C@@H]6CC[C@H]([C@H](C)CCCC(C)C)[C@@]6(C)CC[C@@H]54)C3)C2=O)C(N)=O)NC(=O)[C@@H](CC(C)C)NC(=O)[C@@H](Cc2c[nH]c3ccccc23)NC(=O)[C@@H](CCC(N)=O)NC(=O)[C@@H](Cc2c[nH]c3ccccc23)NC(=O)[C@@H](CCC(=O)O)NC(=O)[C@H]2CCCN2C(=O)[C@@H](Cc2ccc(O)cc2)NC(=O)[C@@H](CC(=O)O)NC1=O (stereo partly drawn) [Chol-PIE12-trimer],Vd,[1]; iv,0.134 L/kg
same,Tmax,[1]; sc,4 h
same,bioavailability,[1]; sc,73%
same,increase of IV half-life,[1]; [5],3 fold
same,reduction of clearance,[1]; [5],14-18 fold
same,extension of apparent half-life upon SC dosing,"[1]; rats, SC, based on terminal-phase elimination, compared to PIE12-trimer",~ 3 fold
same,solubility,[2],~ 40 mg/ml
same,half-life,[3]; [6],1.6 h
same,bioavailability,[3]; [7],51%
same,C0,"[3]; rat, in vivo, iv, 1 mg/kg",4530 nM
"I: Ac-[dH][dP][dC][dD][dY][dP][dE][dW][dQ][dW][dL][dC][dE][dL]G[PEG4][dK]-NH2 / II: Ac-[dH][dP][dC][dD][dY][dP][dE][dW][dQ][dW][dL][dC][dE][dL]G[PEG4][dK]-NH2 / III: Ac-[dH][dP][dC][dD][dY][dP][dE][dW][dQ][dW][dL][dC][dE][dL]G[PEG4][dK]-NH2 (disulfide I:3-I:12, II:3-II:12, III:3-III:12; linker I:17-II:17-III:17 via X1) [CPT31]",AUC(0-inf),"[4]; iv, 1 mg/kg",11.6 µM·h
same,C0,"[4]; iv, 1 mg/kg",3110 nM
same,Vd,"[4]; iv, 1 mg/kg",0.097 L/kg
same,clearance,"[4]; iv, 1 mg/kg",0.158 mL/min/kg
same,half-life,"[4]; iv, 1 mg/kg",7.4 h
same,AUC(0-inf),"[4]; sc, 3 mg/kg",29.4 µM·h
same,Cmax,"[4]; sc, 3 mg/kg",922 nM
same,Tmax,"[4]; sc, 3 mg/kg",8 h
same,bioavailability,"[4]; sc, 3 mg/kg",80%
same,half-life,"[4]; sc, 3 mg/kg",18.8 h
same,solubility,[2],~ 40 mg/ml
same,AUC(0-inf),[3]; [8],3.84 µM·h
same,C0,[3]; [8],2950 nM
same,Vd,[3]; [8],0.134 L/kg
same,clearance,[3]; [8],0.483 mL/min/kg
same,half-life,[3]; [6],3.3 h
same,AUC(0-inf),[3]; [7],2.11 µM·h
same,Cmax,[3]; [7],261 nM
same,Tmax,[3]; [7],2 h
same,half-life,[3]; [7],5.4 h
same,prolongation of IV half-life,"[3]; rats, IV, compared to Chol-PIE12-trimer",2 fold
same,prolongation of SC half-life,"[3]; rats, SC, compared to Chol-PIE12-trimer",1.4 fold
CCCCCCCCCCCCCCCCSC1CC(=O)N(CCC(=O)NCCOCCOCCOCCOCCOCCOCCOCCOCCOCCOCCOCCOCCOCCOCCOCCOCCOCCOCCOCCOCCOCCOCCOCCOCCC(=O)NC(COCCC(=O)NCCOCCOCCOCCOCCC(=O)NCCCC[C@@H](NC(=O)CNC(=O)[C@@H](CC(C)C)NC(=O)[C@@H](CCC(=O)O)NC(=O)[C@H]2CSSC[C@@H](NC(=O)[C@H]3CCCN3C(=O)[C@@H](Cc3c[nH]cn3)NC(C)=O)C(=O)N[C@H](CC(=O)O)C(=O)N[C@H](Cc3ccc(O)cc3)C(=O)N3CCC[C@@H]3C(=O)N[C@H](CCC(=O)O)C(=O)N[C@H](Cc3c[nH]c4ccccc34)C(=O)N[C@H](CCC(N)=O)C(=O)N[C@H](Cc3c[nH]c4ccccc34)C(=O)N[C@H](CC(C)C)C(=O)N2)C(N)=O)(COCCC(=O)NCCOCCOCCOCCOCCC(=O)NCCCC[C@@H](NC(=O)CNC(=O)[C@@H](CC(C)C)NC(=O)[C@@H](CCC(=O)O)NC(=O)[C@H]2CSSC[C@@H](NC(=O)[C@H]3CCCN3C(=O)[C@@H](Cc3c[nH]cn3)NC(C)=O)C(=O)N[C@H](CC(=O)O)C(=O)N[C@H](Cc3ccc(O)cc3)C(=O)N3CCC[C@@H]3C(=O)N[C@H](CCC(=O)O)C(=O)N[C@H](Cc3c[nH]c4ccccc34)C(=O)N[C@H](CCC(N)=O)C(=O)N[C@H](Cc3c[nH]c4ccccc34)C(=O)N[C@H](CC(C)C)C(=O)N2)C(N)=O)COCCC(=O)NCCOCCOCCOCCOCCC(=O)NCCCC[C@@H](NC(=O)CNC(=O)[C@@H](CC(C)C)NC(=O)[C@@H](CCC(=O)O)NC(=O)[C@H]2CSSC[C@@H](NC(=O)[C@H]3CCCN3C(=O)[C@@H](Cc3c[nH]cn3)NC(C)=O)C(=O)N[C@H](CC(=O)O)C(=O)N[C@H](Cc3ccc(O)cc3)C(=O)N3CCC[C@@H]3C(=O)N[C@H](CCC(=O)O)C(=O)N[C@H](Cc3c[nH]c4ccccc34)C(=O)N[C@H](CCC(N)=O)C(=O)N[C@H](Cc3c[nH]c4ccccc34)C(=O)N[C@H](CC(C)C)C(=O)N2)C(N)=O)C1=O (stereo partly drawn) [C16-PIE12-trimer],Vd,[1]; iv,0.137 L/kg
same,half-life,[1]; iv,0.9 h
same,Tmax,[1]; sc,1 h
same,bioavailability,[1]; sc,38%
same,half-life,[1]; sc,1.2 h
same,increase in half-life upon IV or SC dosing,"[1]; rats, IV or SC, compared to PIE12-trimer",< 2 fold
same,reduction of clearance,[1]; [5],5-8 fold
